Assay results as given in patent US9731036 (dated 2017).
Positions count from the first letter of the chain named.

Key:
Test in all cases: flow cytometry on 721.221 transfectants
[1] = target: T1, CEACAM1 protein (CD66a), whole, on cells (human, UniProt P13688 35-526)
T1 construct: whole, on cells; also called CCM1
T1 sequence (looked up): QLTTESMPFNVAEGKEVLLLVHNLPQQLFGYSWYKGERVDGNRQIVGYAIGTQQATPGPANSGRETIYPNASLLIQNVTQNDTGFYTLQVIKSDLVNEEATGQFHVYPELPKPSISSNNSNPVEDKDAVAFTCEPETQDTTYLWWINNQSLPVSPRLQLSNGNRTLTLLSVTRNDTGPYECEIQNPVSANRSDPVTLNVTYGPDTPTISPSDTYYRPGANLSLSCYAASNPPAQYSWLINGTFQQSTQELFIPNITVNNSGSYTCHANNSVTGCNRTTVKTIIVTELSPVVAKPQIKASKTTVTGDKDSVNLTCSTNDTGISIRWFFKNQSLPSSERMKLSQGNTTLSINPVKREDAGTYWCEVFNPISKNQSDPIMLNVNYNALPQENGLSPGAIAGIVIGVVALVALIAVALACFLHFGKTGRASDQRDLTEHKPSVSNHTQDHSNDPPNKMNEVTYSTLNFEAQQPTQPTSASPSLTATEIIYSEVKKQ
Description: (§1) The staining of the secondary reagent FITC-conjugated goat anti-mouse F(ab_)2 of each cell type was used as background (_). The y-axis indicates the median fluorescence intensity (MFI). […] The y-axis indicates the median fluorescence intensity (MFI). […] The E:T cell ratio was 2:1.
(§2) Specificity of CEACAM1 Binding to CEACAM6 is Controlled by the Presence of Both 43R and 44Q Residues To determine whether both residues are required for binding, the amino acid residues in positions 43 and 44 in CEACAM1 (contains 43R44Q) and CEACAM6 (contains 43S44L) were mutated. Using site-directed mutagenesis in the CEACAM1, the 43R residue was changed to 43A (CCM1-R43A) and the 44Q residue was changed to 44L (CCM1-Q44L). In CEACAM6, the 43S was changed to 43R (CCM6-S43R) and 44L was changed to 44Q (CCM6-L44Q). All mutants were generated as described in Materials and Methods and stably transfected into 0.221 cells. The expression level was monitored by Kat4c mAb, and conformation was monitored by 5F4 mAb (FIG. 7A). […] Similar results were obtained when both 44Q and 43R residues in CEACAM1 were mutated (FIG. 5).

[2] = target: T2, CCM1-RQ43,44SL (CEACAM1 with S and L at positions 43 and 44 instead of R and Q) (human, UniProt P13688 35-526)
T2 construct: whole, on cells; also called CEACAM 1-RQ43,44SL
T2 sequence (looked up): T1 sequence (looked up) with R43S, Q44L
Description: as §1, §2

[3] = target: T3, CCM6-SL43,44RQ (CEACAM6 with R and Q at positions 43 and 44 instead of S and L) (human, UniProt P40199 35-320)
T3 construct: whole, on cells; also called CEACAM6-SL43,44RQ
T3 sequence (looked up): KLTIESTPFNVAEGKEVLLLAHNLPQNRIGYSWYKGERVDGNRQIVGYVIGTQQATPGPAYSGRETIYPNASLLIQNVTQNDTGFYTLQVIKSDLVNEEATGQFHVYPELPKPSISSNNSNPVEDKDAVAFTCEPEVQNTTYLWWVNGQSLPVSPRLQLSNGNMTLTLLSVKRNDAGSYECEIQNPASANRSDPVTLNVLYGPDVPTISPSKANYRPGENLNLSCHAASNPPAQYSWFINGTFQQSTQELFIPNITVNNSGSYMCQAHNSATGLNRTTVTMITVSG
Description: as §1, §2

[4] = target: T4, CEACAM6 protein, whole, on 721.221 cells (human, UniProt P40199 35-320, GPI-anchored to the cell membrane)
T4 construct: whole, on cells; also called CCM6; CD66c
T4 sequence (looked up): T3 sequence (looked up) with R43S, Q44L
Description: as §1, §2

Measured: binding result

B1: CD99-Ig fusion protein (control) (Fc fusion, UniProt P14209 23-122, looked up)
chain: DGGFDLSDALPDNENKKPTAIPKKPSAGDDFDLGDAVVDGENDDPRPPNPPKPMPNPNPNHPSSSGSFSDADLADGVSGGEGKGGSDGGGSHRKEGEEAD
notes: extracellular domain; Made in COS-7 cells, purified on protein G; construct described elsewhere; also called control CD99-Ig; not shown: human IgG1 Fc portion
no binding: all assays above
